Results as given in patent US20130251728A1 (Regeneron, published 2013).
Blank lines part the entries; values can stand above or below the binder they belong to.

How the values were obtained:
hGCGR-hFc [1] = biological target: T1, hGCGR-hFc (human); assay: SPR Biacore T100, 25C, mAb captured, antigen flowed
T1 construct: also called REGN316
Method: (§1) Measurements were conducted on a T100 Biacore instrument. Antibodies were captured onto the Biacore sensor chip surface via a covalently-linked anti-human kappa antibody capture surface, and the soluble GCGR proteins were applied to the surface either in a monovalent (hGCGR expressed with a myc-myc-hexa-histidine C-terminal tag) or bivalent (hGCGR and MfGCGR expressed with an N-terminal Fc fusion) format.
(§2) Binding dissociation equilibrium constants and dissociative half-lives were calculated from the kinetic rate constants as: KD=kd/kₐ; t_{1/2}=(In2/kd).

mfGCGR-hFc [2] = biological target: T2, mfGCGR-hFc (cynomolgus monkey (Macaca fascicularis)); assay: as above
T2 construct: also called mfGCGR-N-terminal hFc
Method: as §1, §2

hGCGR-mmh [3] = biological target: T3, hGCGR-mmh (human); assay: as above
T3 construct: also called REGN547; monovalent hGCGR
T3 chain: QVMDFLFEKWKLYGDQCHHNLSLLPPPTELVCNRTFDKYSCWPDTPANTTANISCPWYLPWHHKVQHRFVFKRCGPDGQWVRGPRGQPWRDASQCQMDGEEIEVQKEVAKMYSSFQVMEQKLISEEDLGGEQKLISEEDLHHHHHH
Method: as §1, §2

[4] = biological target: T4, monkey (Macaca fascicularis) GCGR (full-length, on HEK293 reporter cells) (monkey (Macaca fascicularis), UniProt P47871 26-477 (human entry)); assay: cell-based or functional assay
T4 chain: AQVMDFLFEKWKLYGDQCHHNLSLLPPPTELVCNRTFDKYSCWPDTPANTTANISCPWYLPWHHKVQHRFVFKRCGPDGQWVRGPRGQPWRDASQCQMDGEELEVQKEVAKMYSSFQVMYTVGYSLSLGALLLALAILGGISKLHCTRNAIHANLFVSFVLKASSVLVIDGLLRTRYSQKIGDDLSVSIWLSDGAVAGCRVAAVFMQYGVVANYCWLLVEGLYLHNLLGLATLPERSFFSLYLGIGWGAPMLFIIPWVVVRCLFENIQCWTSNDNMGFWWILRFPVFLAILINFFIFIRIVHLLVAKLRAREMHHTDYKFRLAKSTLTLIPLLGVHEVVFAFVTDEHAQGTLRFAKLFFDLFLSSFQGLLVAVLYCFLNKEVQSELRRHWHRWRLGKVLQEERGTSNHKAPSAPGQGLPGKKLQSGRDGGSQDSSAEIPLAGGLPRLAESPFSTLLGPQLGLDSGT

[5] = biological target: human GCGR (full-length, on HEK293 reporter cells) (human, UniProt P47871 27-477); assay: cell-based or functional assay
[6] = biological target: rat GCGR (full-length, on transiently transfected HEK293 reporter cells) (rat, UniProt P30082 27-485); assay: cell-based or functional assay
[7] = biological target: mouse GCGR (full-length, on HEK293 reporter cells) (mouse, UniProt Q61606 27-485); assay: cell-based or functional assay
hGCGR-hFc [8] = biological target: T1, hGCGR-hFc; assay: SPR Biacore T100, 37C, mAb captured, antigen flowed
Method: as §1, §2

mfGCGR-hFc [9] = biological target: T2, mfGCGR-hFc; assay: as above
Method: as §1, §2

hGCGR-mmh [10] = biological target: T3, hGCGR-mmh; assay: as above
Method: as §1, §2

T2 sequence (chain, as listed by the source limits assumed): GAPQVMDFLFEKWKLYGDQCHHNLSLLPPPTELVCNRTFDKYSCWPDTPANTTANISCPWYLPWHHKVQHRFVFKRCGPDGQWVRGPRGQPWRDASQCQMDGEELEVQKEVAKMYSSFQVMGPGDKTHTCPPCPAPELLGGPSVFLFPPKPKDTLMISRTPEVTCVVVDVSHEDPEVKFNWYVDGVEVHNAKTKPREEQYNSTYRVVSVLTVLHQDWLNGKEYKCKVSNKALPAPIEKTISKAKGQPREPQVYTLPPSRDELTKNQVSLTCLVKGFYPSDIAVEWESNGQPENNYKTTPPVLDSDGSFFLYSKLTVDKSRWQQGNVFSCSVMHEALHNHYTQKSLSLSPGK
T1 sequence (chain, as listed by the source limits assumed): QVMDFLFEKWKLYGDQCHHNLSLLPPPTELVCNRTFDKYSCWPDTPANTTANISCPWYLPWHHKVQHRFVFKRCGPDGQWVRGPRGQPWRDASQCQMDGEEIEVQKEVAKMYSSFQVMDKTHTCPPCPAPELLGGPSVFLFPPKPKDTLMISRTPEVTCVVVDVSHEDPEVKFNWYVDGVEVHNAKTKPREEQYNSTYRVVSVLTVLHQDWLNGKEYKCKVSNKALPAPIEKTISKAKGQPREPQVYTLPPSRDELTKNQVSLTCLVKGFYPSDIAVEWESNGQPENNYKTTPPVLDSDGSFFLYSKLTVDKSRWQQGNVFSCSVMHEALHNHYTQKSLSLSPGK
Sequence of mouse GCGR (full-length, on HEK293 reporter cells) (Q61606 27-485 limits assumed): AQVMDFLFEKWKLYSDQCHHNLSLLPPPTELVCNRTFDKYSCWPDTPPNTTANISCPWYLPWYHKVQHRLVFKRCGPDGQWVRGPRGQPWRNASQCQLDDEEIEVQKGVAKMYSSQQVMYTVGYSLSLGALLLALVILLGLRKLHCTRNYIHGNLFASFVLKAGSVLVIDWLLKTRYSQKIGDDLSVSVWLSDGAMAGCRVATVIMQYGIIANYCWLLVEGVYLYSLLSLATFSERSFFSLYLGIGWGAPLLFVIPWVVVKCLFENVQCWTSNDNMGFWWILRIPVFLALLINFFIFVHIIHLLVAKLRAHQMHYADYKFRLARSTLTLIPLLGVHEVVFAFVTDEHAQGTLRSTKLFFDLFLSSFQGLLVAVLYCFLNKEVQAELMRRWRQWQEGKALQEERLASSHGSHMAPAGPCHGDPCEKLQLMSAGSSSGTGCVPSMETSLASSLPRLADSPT
Sequence of human GCGR (full-length, on HEK293 reporter cells) (P47871 27-477): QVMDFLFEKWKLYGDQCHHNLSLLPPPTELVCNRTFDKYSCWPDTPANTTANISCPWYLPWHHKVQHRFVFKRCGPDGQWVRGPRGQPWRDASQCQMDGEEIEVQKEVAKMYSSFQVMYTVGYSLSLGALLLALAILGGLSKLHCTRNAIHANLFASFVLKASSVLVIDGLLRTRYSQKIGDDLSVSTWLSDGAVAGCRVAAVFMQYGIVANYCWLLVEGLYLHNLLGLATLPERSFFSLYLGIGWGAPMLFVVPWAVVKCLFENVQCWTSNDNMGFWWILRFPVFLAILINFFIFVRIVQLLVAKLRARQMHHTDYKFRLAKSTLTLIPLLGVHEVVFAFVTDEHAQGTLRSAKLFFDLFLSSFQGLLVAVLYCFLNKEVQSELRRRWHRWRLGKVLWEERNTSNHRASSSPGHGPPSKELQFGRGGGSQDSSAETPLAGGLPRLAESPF
Sequence of rat GCGR (full-length, on transiently transfected HEK293 reporter cells) (P30082 27-485 limits assumed): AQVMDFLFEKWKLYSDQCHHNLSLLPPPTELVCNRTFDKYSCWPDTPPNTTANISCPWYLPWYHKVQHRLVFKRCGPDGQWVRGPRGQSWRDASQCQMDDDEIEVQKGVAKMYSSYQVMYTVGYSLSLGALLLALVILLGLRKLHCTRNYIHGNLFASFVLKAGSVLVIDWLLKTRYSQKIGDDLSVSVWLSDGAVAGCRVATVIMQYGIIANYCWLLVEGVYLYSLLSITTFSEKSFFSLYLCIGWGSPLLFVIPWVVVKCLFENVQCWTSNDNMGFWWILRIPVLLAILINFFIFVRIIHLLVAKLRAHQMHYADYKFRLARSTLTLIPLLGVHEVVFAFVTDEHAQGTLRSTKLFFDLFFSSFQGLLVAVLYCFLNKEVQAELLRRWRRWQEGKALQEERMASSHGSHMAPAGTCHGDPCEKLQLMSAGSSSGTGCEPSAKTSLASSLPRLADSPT

- Kd (hGCGR-hFc [1]): 0.238 nM
- T½ (hGCGR-hFc [1]): 0.683 h
- koff (hGCGR-hFc [1]): 0.000285 s⁻¹
- kon (hGCGR-hFc [1]): 1.2e+06 M⁻¹ s⁻¹
- Kd (mfGCGR-hFc [2]): 0.0238 nM
- T½ (mfGCGR-hFc [2]): 4.6 h
- koff (mfGCGR-hFc [2]): 4.18e-05 s⁻¹
- kon (mfGCGR-hFc [2]): 1.76e+06 M⁻¹ s⁻¹
- Kd (hGCGR-mmh [3]): 3.54 nM
- T½ (hGCGR-mmh [3]): 0.05 h
- koff (hGCGR-mmh [3]): 0.00374 s⁻¹
- kon (hGCGR-mmh [3]): 1.06e+06 M⁻¹ s⁻¹
- IC50, inhibition of 100 pM GCG-stimulated luciferase activity, mfGCGR reporter cells [4]: 4.03 nM
- IC50, inhibition of 100 pM GCG-stimulated luciferase activity, hGCGR reporter cells [5]: 0.27 nM
- IC50, inhibition of 100 pM GCG-stimulated luciferase activity, rat GCGR reporter cells [6]: 1.21 nM
- IC50, inhibition of 100 pM GCG-stimulated luciferase activity, mGCGR reporter cells [7]: 1.13 nM
- Kd (hGCGR-hFc [8]): 0.077 nM
- T½ (hGCGR-hFc [8]): 1.77 h
- koff (hGCGR-hFc [8]): 0.000109 s⁻¹
- kon (hGCGR-hFc [8]): 1.41e+06 M⁻¹ s⁻¹
- Kd (mfGCGR-hFc [9]): 0.0347 nM
- T½ (mfGCGR-hFc [9]): 2.53 h
- koff (mfGCGR-hFc [9]): 7.59e-05 s⁻¹
- kon (mfGCGR-hFc [9]): 2.19e+06 M⁻¹ s⁻¹
- Kd (hGCGR-mmh [10]): 12.8 nM
- T½ (hGCGR-mmh [10]): 1 min
- koff (hGCGR-mmh [10]): 0.0202 s⁻¹
- kon (hGCGR-mmh [10]): 1.58e+06 M⁻¹ s⁻¹
B1: H4H1321P (antibody, V domains shown)
VH: QVQLVESGGGVVQPGRSLRLSCAASGFTFSSYDMHWVRQAPGKGLEWVAVISSDGRDKYYVDSVKGRFTISRDNSKNTLYLQMNSLRAEDTAVYYCAKEMVYYDILTGYHNYYGMDVWGQGTTVTVS
VL: DIQMTQSPSSLSASVGDRVTITCRASQGINNYLAWFQQKPGKAPKSLIHTASSLQSGVPSKFSGSGSGTDFTLTISSLQPEDFATYYCQQYNTYPLTFGGGTKVEIK
notes: Fully human anti-GCGR antibody; the controls are called isotype-matched hIgG4

- Kd (hGCGR-hFc [1]): 0.0618 nM
- T½ (hGCGR-hFc [1]): 3.1 h
- koff (hGCGR-hFc [1]): 6.2e-05 s⁻¹
- kon (hGCGR-hFc [1]): 1e+06 M⁻¹ s⁻¹
- Kd (mfGCGR-hFc [2]): 0.0182 nM
- T½ (mfGCGR-hFc [2]): 8.43 h
- koff (mfGCGR-hFc [2]): 2.28e-05 s⁻¹
- kon (mfGCGR-hFc [2]): 1.26e+06 M⁻¹ s⁻¹
- Kd (hGCGR-mmh [3]): 0.825 nM
- T½ (hGCGR-mmh [3]): 0.367 h
- koff (hGCGR-mmh [3]): 0.000532 s⁻¹
- kon (hGCGR-mmh [3]): 645000 M⁻¹ s⁻¹
- IC50, inhibition of 100 pM GCG-stimulated luciferase activity, mfGCGR reporter cells [4]: 2.85 nM
- IC50, inhibition of 100 pM GCG-stimulated luciferase activity, hGCGR reporter cells [5]: 0.46 nM
- IC50, inhibition of 100 pM GCG-stimulated luciferase activity, rat GCGR reporter cells [6]: 0.97 nM
- IC50, inhibition of 100 pM GCG-stimulated luciferase activity, mGCGR reporter cells [7]: 1.6 nM
- Kd (hGCGR-hFc [8]): 0.318 nM
- T½ (hGCGR-hFc [8]): 0.517 h
- koff (hGCGR-hFc [8]): 0.000371 s⁻¹
- kon (hGCGR-hFc [8]): 1.17e+06 M⁻¹ s⁻¹
- Kd (mfGCGR-hFc [9]): 0.0631 nM
- T½ (mfGCGR-hFc [9]): 1.8 h
- koff (mfGCGR-hFc [9]): 0.000107 s⁻¹
- kon (mfGCGR-hFc [9]): 1.69e+06 M⁻¹ s⁻¹
- Kd (hGCGR-mmh [10]): 4.91 nM
- T½ (hGCGR-mmh [10]): 3 min
- koff (hGCGR-mmh [10]): 0.0043 s⁻¹
- kon (hGCGR-mmh [10]): 876000 M⁻¹ s⁻¹
B2: H4H1339P (antibody, V domains shown)
VH: EVQLVESGGGMVQPGGSLRLSCAASGFTSSNYDMHWVRQATGKGLEWVSSIDTAGDTYYPDSVKGRFIISRENAKNSLYLQMNSLRAGDTAVYYCTREPRNYEILTGHYHYHGMDIWGQGTTVTVS
VL: AIQMTQSPSSLSASVGDRVTITCRASQAIRNDLGWYQQKPGKAPKLLIYTAFSLQSGVPSRFSGSKSGTDFTLTISSLQPEDFATYYCLQDYTNPRTFGQGTKVEIK
notes: as for B1
